Laboratory results taken from PMC3197140.

Target: ^15N labeled FLNA repeat 21

CBRM1/5 binding (αMβ2 activation) on human neutrophils treated with 50 µM peptide for 5 min at 37°C, flow cytometry: 2 fold
Binder: MASKPEKRVASSVFITLAPPRRDVRRRRRRRRR [WTMigfilinR9 peptide]
